Results taken from patent US20240301076A1.

Target: human CXCR2 (human) (UniProt P25025)
Assay: cell-based or functional assay

Chain of human CXCR2 (human) (P25025 whole entry): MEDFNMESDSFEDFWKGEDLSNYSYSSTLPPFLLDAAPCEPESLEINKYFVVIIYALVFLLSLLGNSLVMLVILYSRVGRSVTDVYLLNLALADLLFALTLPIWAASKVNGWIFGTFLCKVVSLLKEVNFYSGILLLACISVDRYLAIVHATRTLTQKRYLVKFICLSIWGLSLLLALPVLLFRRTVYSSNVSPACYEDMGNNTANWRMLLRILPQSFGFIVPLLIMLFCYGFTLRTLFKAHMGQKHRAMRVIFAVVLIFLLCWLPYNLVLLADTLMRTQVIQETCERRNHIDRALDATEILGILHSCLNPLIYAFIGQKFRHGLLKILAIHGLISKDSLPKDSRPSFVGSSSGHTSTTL

EC50 mean, Tango assay: 39.6 nM
EC50 mean, calcium flux assay: 7.14 nM
B1: human CXCL7 (ligand, UniProt P02775 59-128, looked up)
chain: AELRCMCIKTTSGIHPKNIQSLEVIGKGTHCNQVEVIATLKDGRKICLDPDAPRIKKIVQKKLAGDESAD
